Assay results taken from patent publication US20150197564A1 (Regeneron, published 2015).

T1: bovine LPL (bovine, UniProt P11151 29-478, limits assumed)
T1 sequence (looked up): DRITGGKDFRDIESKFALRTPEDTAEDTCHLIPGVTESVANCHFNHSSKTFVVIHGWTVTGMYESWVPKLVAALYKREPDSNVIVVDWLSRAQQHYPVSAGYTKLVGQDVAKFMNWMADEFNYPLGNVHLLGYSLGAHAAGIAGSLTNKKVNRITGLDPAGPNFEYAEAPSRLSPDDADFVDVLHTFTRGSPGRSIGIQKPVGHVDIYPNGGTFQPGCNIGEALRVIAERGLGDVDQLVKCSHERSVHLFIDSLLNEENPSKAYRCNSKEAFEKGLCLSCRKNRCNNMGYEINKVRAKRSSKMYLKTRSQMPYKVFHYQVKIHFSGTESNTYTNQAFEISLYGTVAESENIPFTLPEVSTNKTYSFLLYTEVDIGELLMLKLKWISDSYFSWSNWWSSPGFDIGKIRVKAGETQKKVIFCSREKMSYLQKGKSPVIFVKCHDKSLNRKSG


Key:
[1] = target: T1, bovine LPL; assay: cell-based or functional assay
[2] = target: T1, bovine LPL; assay: cell-based or functional assay; remark: listed apart in the source

| Binder | IC50 for blocking LPL [1] | EC50 (nM), inhibition of LPL activity [2] |
| --- | --- | --- |
| hANGPTL3(17-169)-mFc (Fc fusion) SRIDQDNSSFDSLSPEPKSRFAMLDDVKILANGLLQLGHGLKDFVHKTKGQINDIFQKLNIFDQSFYDLSLQTSEIKEEEKELRRTTYKLQVKNEEVKNMSLELNSKLESLLEEKILLQQKVKYLEEQLTNLIQNQPETPEHPEVTSLKTFVEEPRGPTIKPCPPCKCPAPNLLGGPSVFIFPPKIKDVLMISLSPIVTCVVVDVSEDDPDVQISWFVNNVEVHTAQTQTHREDYNSTLRVVSALPIQHQDWMSGKEFKCKVNNKDLPAPIERTISKPKGSVRAPQVYVLPPPEEEMTKKQVTLTCMVTDFMPEDIYVEWTNNGKTELNYKNTEPVLDSDGSYFMYSKLRVEKKNWVERNSYSCSVVHEGLHNHHTTKSFSRTPGK | 47 nM | 16 nM |
| mANGPTL3(17-240)-His (other) GAPSRVDPDLSSFDSAPSEPKSRFAMLDDVKILANGLLQLGHGLKDFVHKTKGQINDIFQKLNIFDQSFYDLSLRTNEIKEEEKELRRTTSTLQVKNEEVKNMSVELNSKLESLLEEKTALQHKVRALEEQLTNLILSPAGAQEHPEVTSLKSFVEQQDNSIRELLQSVEEQYKQLSQQHMQIKEIEKQLRKTGIQEPSENSLSSKSRAPRTTPPLQLNETENTEQDASHHHHHH | 341 nM | 199 nM |
